Results published in US20170189511A1.

Molecular target: HLA-A*24 (peptide-receptive MHC class I monomer of the UV-ligand exchange assay) (human)
Experiment: UV-ligand exchange with anti-b2m ELISA

Binder	peptide exchange yield [%]
TYTTVPRVAF [Peptide SEQ ID NO: 172 (…)]	> 75
VYPWLGALL [Peptide SEQ ID NO: 177 (…)]	> 75
IFIEVFSHF [Peptide SEQ ID NO: 178 (…)]	50 to 75
MYDSYWRQF [Peptide SEQ ID NO: 179 (…)]	> 75
IYDDSFIRPVTF [Peptide SEQ ID NO: 180 (…)]	50 to 75
LYLDIINLF [Peptide SEQ ID NO: 181 (…)]	> 75
IYQLDTASI [Peptide SEQ ID NO: 182 (…)]	50 to 75
VFTSTARAF [Peptide SEQ ID NO: 183 (…)]	50 to 75
VFQNFPLLF [Peptide SEQ ID NO: 184 (…)]	> 75
IYKVGAPTI [Peptide SEQ ID NO: 185 (…)]	50 to 75
IFPQFLYQF [Peptide SEQ ID NO: 186 (…)]	> 75
TYLRDQHFL [Peptide SEQ ID NO: 187 (…)]	> 75
RYFKGLVF [Peptide SEQ ID NO: 188 (RYFKGLVF)]	50 to 75
WYVNGVNYF [Peptide SEQ ID NO: 189 (…)]	20 to 49
GFFIFNERF [Peptide SEQ ID NO: 190 (…)]	50 to 75
VFKASKITF [Peptide SEQ ID NO: 191 (…)]	50 to 75
SYALLTYMI [Peptide SEQ ID NO: 192 (…)]	> 75
RFHPTPLLL [Peptide SEQ ID NO: 193 (…)]	> 75
EFGSLHLEFL [Peptide SEQ ID NO: 194 (…)]	< 20
LYLDKATLI [Peptide SEQ ID NO: 198 (…)]	50 to 75
FYSRLLQKF [Peptide SEQ ID NO: 203 (…)]	50 to 75
VHIPEVYLI [Peptide SEQ ID NO: 205 (…)]	50 to 75
EYQENFLSF [Peptide SEQ ID NO: 206 (…)]	50 to 75
TYTQDFNKF [Peptide SEQ ID NO: 208 (…)]	50 to 75
IYTMIYRNL [Peptide SEQ ID NO: 210 (…)]	> 75

Binder	peptide exchange yield [%]
YYLEVGKTLI [Peptide SEQ ID NO: 211 (…)]	> 75
LYLKLWNLI [Peptide SEQ ID NO: 214 (…)]	50 to 75
YFDKVVTL [Peptide SEQ ID NO: 215 (YFDKVVTL)]	20 to 49
QYSSVFKSL [Peptide SEQ ID NO: 216 (…)]	> 75
FFPPTRQMGLLF [Peptide SEQ ID NO: 217 (…)]	> 75
EYPLVINTL [Peptide SEQ ID NO: 219 (…)]	50 to 75
RYSTGLAGNLL [Peptide SEQ ID NO: 221 (…)]	50 to 75
KYIPYKYVI [Peptide SEQ ID NO: 223 (…)]	50 to 75
QYLENLEKL [Peptide SEQ ID NO: 224 (…)]	50 to 75
YYVYIMNHL [Peptide SEQ ID NO: 225 (…)]	50 to 75
VYRDETGELF [Peptide SEQ ID NO: 226 (…)]	50 to 75
IFLDYEAGTLSF [Peptide SEQ ID NO: 227 (…)]	> 75
KYTSWYVAL [Peptide SEQ ID NO: 228 (…)]	> 75
KYMVYPQTF [Peptide SEQ ID NO: 267 (…)]	> 75
LYHDIFSRL [Peptide SEQ ID NO: 271 (…)]	> 75
QYLQDAYSF [Peptide SEQ ID NO: 272 (…)]	> 75
TYIKPISKL [Peptide SEQ ID NO: 273 (…)]	50 to 75
AYLHSHALI [Peptide SEQ ID NO: 274 (…)]	> 75
EYINQGDLHEF [Peptide SEQ ID NO: 275 (…)]	50 to 75
VYGFQWRHF [Peptide SEQ ID NO: 276 (…)]	> 75
RYISDQLFTNF [Peptide SEQ ID NO: 278 (…)]	> 75
TYIESASEL [Peptide SEQ ID NO: 279 (…)]	50 to 75
RYPDNLKHLYL [Peptide SEQ ID NO: 280 (…)]	> 75
KFVDSTFYL [Peptide SEQ ID NO: 282 (…)]	> 75
TYGDAGLTYTF [Peptide SEQ ID NO: 283 (…)]	50 to 75

Binder	peptide exchange yield [%]
RYLNKAFHI [Peptide SEQ ID NO: 284 (…)]	50 to 75
RYPDNLKHL [Peptide SEQ ID NO: 286 (…)]	20 to 49
VYVSDIQEL [Peptide SEQ ID NO: 288 (…)]	50 to 75
KYPVEWAKF [Peptide SEQ ID NO: 289 (…)]	> 75
HYSQELSLLYL [Peptide SEQ ID NO: 158 (…)]	> 75
LYNKGFIYL [Peptide SEQ ID NO: 159 (…)]	> 75
VYTLDIPVL [Peptide SEQ ID NO: 160 (…)]	> 75
IYLVSIPEL [Peptide SEQ ID NO: 161 (…)]	> 75
VFTRVSSFL [Peptide SEQ ID NO: 162 (…)]	50 to 75
DYLKGLASF [Peptide SEQ ID NO: 163 (…)]	> 75
KFSSFSLFF [Peptide SEQ ID NO: 164 (…)]	50 to 75
DYTTWTALL [Peptide SEQ ID NO: 165 (…)]	> 75
YYVESGKLF [Peptide SEQ ID NO: 166 (…)]	> 75
NYINRILKL [Peptide SEQ ID NO: 167 (…)]	> 75
KYQDILETI [Peptide SEQ ID NO: 168 (…)]	> 75
AYTLIAPNI [Peptide SEQ ID NO: 169 (…)]	50 to 75
VYEDQVGKF [Peptide SEQ ID NO: 170 (…)]	20 to 49
LFIPSSKLLFL [Peptide SEQ ID NO: 171 (…)]	50 to 75
IYSWILDHF [Peptide SEQ ID NO: 173 (…)]	> 75
VYVGGGQIIHL [Peptide SEQ ID NO: 174 (…)]	50 to 75
YYEVHKELF [Peptide SEQ ID NO: 175 (…)]	> 75
EYNQWFTKL [Peptide SEQ ID NO: 176 (…)]	50 to 75
TYSVSFPMF [Peptide SEQ ID NO: 195 (…)]	> 75
LYIDRPLPYL [Peptide SEQ ID NO: 196 (…)]	50 to 75
